B1: AU/GU-rich RNA (ssRNA)
RNA: UAUUUAGUGGUGUUAG
B2: random RNA (ssRNA)
RNA: CUAAGAUGCUCGCUGC

Columns and labels:
squid p32 (AUF1 homolog) = molecular target: T1, squid p32 (AUF1 homolog) (Aedes albopictus (cDNA from C6/36 cells), UniProt A0A023EP16 2-301); assay: fluorescence intensity titration; conditions: protein: recombinant; tags: none after cleavage (SUMO fusion removed by SUMO protease)
T1 sequence: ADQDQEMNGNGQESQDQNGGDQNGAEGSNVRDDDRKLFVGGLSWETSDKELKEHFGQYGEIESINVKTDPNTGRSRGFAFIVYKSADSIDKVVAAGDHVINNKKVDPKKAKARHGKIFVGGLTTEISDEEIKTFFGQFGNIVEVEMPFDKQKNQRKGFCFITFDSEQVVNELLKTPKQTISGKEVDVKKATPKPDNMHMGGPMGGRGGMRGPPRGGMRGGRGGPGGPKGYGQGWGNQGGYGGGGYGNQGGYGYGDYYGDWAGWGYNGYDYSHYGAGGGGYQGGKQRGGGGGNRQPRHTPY

squid p30 (AUF1 homolog) = molecular target: T2, squid p30 (AUF1 homolog) (Aedes albopictus (cDNA from C6/36 cells), UniProt A0ABM1XVA0 2-281); assay: fluorescence intensity titration; conditions: protein: recombinant; tags: none after cleavage (SUMO fusion removed by SUMO protease)
T2 sequence: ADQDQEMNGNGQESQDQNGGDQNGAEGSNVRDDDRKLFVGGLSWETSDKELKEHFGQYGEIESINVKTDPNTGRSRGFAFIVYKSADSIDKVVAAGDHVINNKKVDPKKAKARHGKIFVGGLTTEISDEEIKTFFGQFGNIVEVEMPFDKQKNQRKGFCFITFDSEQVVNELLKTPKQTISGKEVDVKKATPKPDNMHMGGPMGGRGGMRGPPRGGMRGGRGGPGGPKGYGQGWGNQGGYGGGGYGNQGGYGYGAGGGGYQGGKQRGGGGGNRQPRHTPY

| Binder | Kd (squid p32 (AUF1 homolog)) [nM] | Kd (squid p30 (AUF1 homolog)) [nM] |
| --- | --- | --- |
| B1 | 130 | 13 |
| B2 | 630 | 250 |

Reference: publication PMC7019923
